Values of other authors in publication PMC7739374.

Target: Sos (Homo sapiens) (UniProt Q07889)

Kd: 28 µM
Substance: Ras (from UniProt P01112)
